Test results reported in US20050276799A1 (PDL BIOPHARMA, published 2005).
Numbering of substitutions follows the chain as printed. Names and notes keep the numbering of the source. Like-named read-outs stand apart in the source and are kept apart here.

Assays:
[1] = biological target: T1, recombinant, GPI-linked human FcRn on cell line NS0 HuFcRn (memb), clone 7-3 (human, UniProt P55899 24-297; P61769 21-119); test: IC50 of wild-type / IC50 of this antibody, same assay
T1 construct: Expressed from pDL208 on the surface of NS0 cells; also called human neonatal Fc receptor; not shown: human c-myc decapeptide flanked by linker peptides, then GPI linkage signal of human decay accelerating factor (vector p)

[2] = biological target: T1, recombinant, GPI-linked human FcRn on …; test: competition FACS vs biotinylated human IgG on NS0 cells expressing human FcRn, FBB pH 6.0
[3] = biological target: T1, recombinant, GPI-linked human FcRn on …; test: IC50 of wild-type / IC50 of this antibody, same assay; remark: listed apart in the source
[4] = biological target: T2, recombinant, GPI-linked rhesus FcRn on cell line NS0 RhFcRn, clone R-3 (rhesus, UniProt H9Z6D2 24-297; Q6V7J5 21-119, GPI-linked); test: as above
T2 construct: Expressed from pDL410 on the surface of NS0 cells; not shown: human c-myc decapeptide flanked by linker peptides, then GPI linkage signal of human decay accelerating factor (vector p)

[5] = biological target: T1, recombinant, GPI-linked human FcRn on …; test: as above; remark: listed apart in the source
[6] = biological target: T1, recombinant, GPI-linked human FcRn on …; test: competition FACS vs biotinylated human IgG on NS0 cells expressing human FcRn, FBB pH 6.0; remark: listed apart in the source
[7] = biological target: T2, recombinant, GPI-linked rhesus FcRn on …; test: competition FACS vs biotinylated human IgG on NS0 cells expressing rhesus FcRn, FBB pH 6.0
[8] = biological target: T2, recombinant, GPI-linked rhesus FcRn on …; test: IC50 of wild-type / IC50 of this antibody, same assay; remark: listed apart in the source
[9] = biological target: T2, recombinant, GPI-linked rhesus FcRn on …; test: competition FACS vs biotinylated human IgG on NS0 cells expressing rhesus FcRn, FBB pH 6.0; remark: listed apart in the source
[10] = biological target: T1, recombinant, GPI-linked human FcRn on …; test: competition FACS vs biotinylated human IgG on NS0 cells expressing human FcRn, FBB pH 6.0; remark: listed apart in the source
[11] = biological target: T1, recombinant, GPI-linked human FcRn on …; test: as above; remark: listed apart in the source
[12] = biological target: T1, recombinant, GPI-linked human FcRn on …; test: IC50 of wild-type / IC50 of this antibody, same assay; remark: listed apart in the source
[13] = biological target: T1, recombinant, GPI-linked human FcRn on …; test: pH-dependent binding and release FACS on NS0 cells expressing human FcRn (FIG. 15B)
[14] = biological target: T1, recombinant, GPI-linked human FcRn on …; test: IC50 of wild-type / IC50 of this antibody, same assay; remark: listed apart in the source
[15] = biological target: T1, recombinant, GPI-linked human FcRn on …; test: competition FACS vs biotinylated human IgG on NS0 cells expressing human FcRn, FBB pH 6.0; remark: listed apart in the source

B1: HuM291-IgG2M3 wild-type (visilizumab) (antibody)
heavy: QVQLVQSGAEVKKPGASVKVSCKASGYTFISYTMHWVRQAPGQGLEWMGYINPRSGYTHYNQKLKDKATLTADKSASTAYMELSSLRSEDTAVYYCARSAYYDYDGFAYWGQGTLVTVSSASTKGPSVFPLAPCSRSTSESTAALGCLVKDYFPEPVTVSWNSGALTSGVHTFPAVLQSSGLYSLSSVVTVPSSNFGTQTYTCNVDHKPSNTKVDKTVERKCCVECPPCPAPPAAAPSVFLFPPKPKDTLMISRTPEVTCVVVDVSHEDPEVQFNWYVDGVEVHNAKTKPREEQFNSTFRVVSVLTVVHQDWLNGKEYKCKVSNKGLPAPIEKTISKTKGQPREPQVYTLPPSREEMTKNQVSLTCLVKGFYPSDIAVEWESNGQPENNYKTTPPMLDSDGSFFLYSKLTVDKSRWQQGNVFSCSVMHEALHNHYTQKSLSLSPSK
light: DIQMTQSPSSLSASVGDRVTITCSASSSVSYMNWYQQKPGKAPKRLIYDTSKLASGVPSRFSGSGSGTDFTLTISSLQPEDFATYYCQQWSSNPPTFGGGTKVEIKRTVAAPSVFIFPPSDEQLKSGTASVVCLLNNFYPREAKVQWKVDNALQSGNSQESVTEQDSKDSTYSLSSTLTLSKADYEKHKVYACEVTHQGLSSPVTKSFNRGEC
notes: Humanized anti-CD3; also called HuM291-IgG2M3 WT; Nuvion
[1]
  Relative Binding: 1 ratio
[2]
  IC50: 42.2 µg/mL

B2: HuM291-IgG2M3 T250Q/M428L (antibody)
heavy: B1 heavy with T249Q, M427L
light: B1 light
[1]
  Relative Binding: 42 ratio
[2]
  IC50: 0.994 µg/mL

B3: Hu1D10-IgG3 wild-type (antibody)
heavy: QVQLQESGPGLVKPSETLSLTCTVSGFSLTNYGVHWVRQSPGKGLEWIGVKWSGGSTEYNAAFISRLTISKDTSKNQVSLKLNSLTAADTAVYYCARNDRYAMDYWGQGTLVTVSSASTKGPSVFPLAPCSRSTSGGTAALGCLVKDYFPEPVTVSWNSGALTSGVHTFPAVLQSSGLYSLSSVVTVPSSSLGTQTYTCNVNHKPSNTKVDKRVELKTPLGDTTHTCPRCPEPKSCDTPPPCPRCPEPKSCDTPPPCPRCPEPKSCDTPPPCPRCPAPELLGGPSVFLFPPKPKDTLMISRTPEVTCVVVDVSHEDPEVQFKWYVDGVEVHNAKTKLREEQYNSTFRVVSVLTVLHQDWLNGKEYKCKVSNKALPAPIEKTISKAKGQPREPQVYTLPPSREEMTKNQVSLTCLVKGFYPSDIAVEWESNGQPENNYNTTPPMLDSDGSFFLYSKLTVDKSRWQQGNIFSCSVMHEALHNRYTQKSLSLSPGK
light: DIQMTQSPSSLSASVGDRVTITCRASENIYSYLAWYQQKPGKAPKLLVSNAKTLAEGVPSRFSGSGSGKQFTLTISSLQPEDFATYYCQHHYGNSYPFGQGTKLEIKRTVAAPSVFIFPPSDEQLKSGTASVVCLLNNFYPREAKVQWKVDNALQSGNSQESVTEQDSKDSTYSLSSTLTLSKADYEKHKVYACEVTHQGLSSPVTKSFNRGEC
[3]
  Relative Binding: 1 ratio
[4]
  Relative Binding: 1 ratio

B4: Hu1D10-IgG4 M428L (antibody)
heavy: not shown
light: B3 light
[5]
  Relative Binding: 15 ratio
[6]
  IC50: 5.03 µg/mL
[7]
  IC50: 6.64 µg/mL
[8]
  Relative Binding: 15 ratio

B5: Hu1D10-IgG4 T250Q/M428L (antibody)
heavy: not shown
light: B3 light
[5]
  Relative Binding: 71 ratio
[6]
  IC50: 1.07 µg/mL
[7]
  IC50: 1.27 µg/mL
[8]
  Relative Binding: 77 ratio

B6: Hu1D10-IgG3 M428L (antibody)
heavy: B3 heavy with M474L
light: B3 light
[9]
  IC50: 3.03 µg/mL
[3]
  Relative Binding: 6.3 ratio
[4]
  Relative Binding: 4.6 ratio
[10]
  IC50: 2.29 µg/mL

B7: Dac-IgG2M3 wild-type (antibody)
heavy: QVQLVQSGAEVKKPGSSVKVSCKASGYTFTSYRMHWVRQAPGQGLEWIGYINPSTGYTEYNQKFKDKATITADESTNTAYMELSSLRSEDTAVYYCARGGGVFDYWGQGTLVTVSSASTKGPSVFPLAPCSRSTSESTAALGCLVKDYFPEPVTVSWNSGALTSGVHTFPAVLQSSGLYSLSSVVTVPSSNFGTQTYTCNVDHKPSNTKVDKTVERKCCVECPPCPAPPAAAPSVFLFPPKPKDTLMISRTPEVTCVVVDVSHEDPEVQFNWYVDGVEVHNAKTKPREEQFNSTFRVVSVLTVVHQDWLNGKEYKCKVSNKGLPAPIEKTISKTKGQPREPQVYTLPPSREEMTKNQVSLTCLVKGFYPSDIAVEWESNGQPENNYKTTPPMLDSDGSFFLYSKLTVDKSRWQQGNVFSCSVMHEALHNHYTQKSLSLSPGK
light: DIQMTQSPSTLSASVGDRVTITCSASSSISYMHWYQQKPGKAPKLLIYTTSNLASGVPARFSGSGSGTEFTLTISSLQPDDFATYYCHQRSTYPLTFGQGTKVEVKRTVAAPSVFIFPPSDEQLKSGTASVVCLLNNFYPREAKVQWKVDNALQSGNSQESVTEQDSKDSTYSLSSTLTLSKADYEKHKVYACEVTHQGLSSPVTKSFNRGEC
notes: also called Dac-IgG2M3 WT
[11]
  IC50: 71.4 µg/mL
[12]
  Relative Binding: 1 ratio

B8: Dac-IgG2M3 T250Q/M428L (antibody)
heavy: B7 heavy with T245Q, M423L
light: B7 light
[11]
  IC50: 4.02 µg/mL
[12]
  Relative Binding: 18 ratio

B9: OST577-IgG1 T250D (antibody)
heavy: not shown
light: SYVLTQPPSVSVAPGQTARITCGGDNIGSKSVNWFQQKPGQAPVLVVYDDNERPSGISERFSGSNSGNTATLTISRVEAGDEADYYCQVWDSSSDHVVFGGGTKLTVLGQPKAAPSVTLFPPSSEELQANKATLVCLISDFYPGAVTVAWKADSSPVKAGVETTTPSKQSNNKYAASSYLSLTPEQWKSHRSYSCQVTHEGSTVEKTVAPTECS
[13]
  binding result: binds

B10: M200-IgG4 wild-type (volociximab) (antibody)
heavy: not shown
light: QIVLTQSPAIMSASLGERVTMTCTASSSVSSNYLHWYQQKPGSAPNLWIYSTSNLASGVPARFSGSGSGTSYSLTISSMEAEDAATYYCHQYLRSPPTFGGGTKLEIKRTVAAPSVFIFPPSDEQLKSGTASVVCLLNNFYPREAKVQWKVDNALQSGNSQESVTEQDSKDSTYSLSSTLTLSKADYEKHKVYACEVTHQGLSSPVTKSFNRGEC
notes: Chimeric anti-α5β1 integrin; also called M200-IgG4 WT
[14]
  Relative Binding: 1 ratio
[15]
  IC50: 34.7 µg/mL

B11: M200-IgG4 T250Q/M428L (antibody)
heavy: not shown
light: B10 light
[14]
  Relative Binding: 35 ratio
[15]
  IC50: 1 µg/mL
